Measured values reported in US20040121957A1 (CASE WESTERN RESERVE UNIVERSITY, published 2004).

Biological target: wild type CFTR (cystic fibrosis transmembrane conductance regulator) chloride channel (human, UniProt P13569 1-1480, phosphorylated by PKA in the assay (50 units/ml PKA and 2 mM ATP in the cis solution); sites not listed for the assay)
Experiment: cell-based or functional assay

wild type CFTR (cystic fibrosis transmembrane conductance regulator) chloride channel, sequence (P13569 whole entry): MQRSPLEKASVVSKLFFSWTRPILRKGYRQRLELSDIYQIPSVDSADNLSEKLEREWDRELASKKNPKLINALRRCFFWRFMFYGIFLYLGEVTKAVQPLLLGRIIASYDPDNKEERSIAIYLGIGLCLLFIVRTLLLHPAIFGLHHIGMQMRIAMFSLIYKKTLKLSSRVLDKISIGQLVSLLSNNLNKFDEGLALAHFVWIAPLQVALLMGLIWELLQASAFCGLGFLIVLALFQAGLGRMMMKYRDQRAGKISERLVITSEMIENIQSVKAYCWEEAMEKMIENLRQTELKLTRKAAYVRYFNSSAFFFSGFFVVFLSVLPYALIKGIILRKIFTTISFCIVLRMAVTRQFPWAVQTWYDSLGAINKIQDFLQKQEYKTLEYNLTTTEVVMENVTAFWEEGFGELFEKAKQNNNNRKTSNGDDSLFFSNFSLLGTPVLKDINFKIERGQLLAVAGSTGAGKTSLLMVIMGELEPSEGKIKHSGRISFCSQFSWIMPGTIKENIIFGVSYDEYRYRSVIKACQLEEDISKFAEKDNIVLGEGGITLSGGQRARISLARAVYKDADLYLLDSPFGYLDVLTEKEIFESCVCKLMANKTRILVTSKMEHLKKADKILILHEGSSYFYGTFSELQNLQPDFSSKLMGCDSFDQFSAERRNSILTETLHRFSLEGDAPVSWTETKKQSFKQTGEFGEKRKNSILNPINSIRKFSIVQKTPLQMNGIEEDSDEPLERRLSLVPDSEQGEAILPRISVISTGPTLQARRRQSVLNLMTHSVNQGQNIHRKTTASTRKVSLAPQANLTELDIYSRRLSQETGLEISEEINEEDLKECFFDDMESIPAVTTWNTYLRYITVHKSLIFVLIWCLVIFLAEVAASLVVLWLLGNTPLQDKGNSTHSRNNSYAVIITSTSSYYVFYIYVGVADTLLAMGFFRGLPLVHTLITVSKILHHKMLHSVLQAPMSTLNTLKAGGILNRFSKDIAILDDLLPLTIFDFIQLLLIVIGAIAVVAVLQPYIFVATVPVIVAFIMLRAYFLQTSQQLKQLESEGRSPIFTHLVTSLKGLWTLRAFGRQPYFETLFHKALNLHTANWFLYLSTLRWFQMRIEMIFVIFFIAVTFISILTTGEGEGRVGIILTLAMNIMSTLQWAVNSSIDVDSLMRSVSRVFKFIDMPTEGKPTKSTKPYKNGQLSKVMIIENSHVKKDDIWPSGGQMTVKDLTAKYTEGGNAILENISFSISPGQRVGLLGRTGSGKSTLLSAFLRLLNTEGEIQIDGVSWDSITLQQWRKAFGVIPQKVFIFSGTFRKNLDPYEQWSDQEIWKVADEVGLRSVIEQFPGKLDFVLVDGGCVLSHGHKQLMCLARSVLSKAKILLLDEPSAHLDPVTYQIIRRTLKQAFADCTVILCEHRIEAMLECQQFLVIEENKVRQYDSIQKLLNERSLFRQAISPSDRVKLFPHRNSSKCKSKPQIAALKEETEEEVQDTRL

GLEISEEINEEDLKECFFDDME [synthetic NEG2 peptide (22 amino acid peptide corresponding to CFTR amino acids 817-838)]
open probability of single wt-CFTR channel in planar lipid bilayer: > 2 fold
